One block for each molecule: values may come before it.
Assays:
[1] = tested on: PARP-1 activation; experiment: Live cell imaging with ddGFP PAR-T after H2O2-mediated PARP-1 activation; assay type: cell-based; conditions: cells treated with H2O2, compared to ddGFP alone
Procedure: Cells were treated with various inhibitors as described herein. For inhibition of nuclear PARPs, cells were treated with PJ-34 ([…]; Enzo, ALX-270) or Olaparib (20 µM; MedChem Express, HY-10162) for 2 hours. For inhibition of PARG, cells were treated with PDD 00017273 (20 µM; MedChem Express, HY-108360) for 2 hours. For UV-induced DNA damage, the cells were harvested 15 minutes after treatment with 50 mJ/cm2 UV irradiation.
Having confirmed the specificity of the PAR-T sensors, their utility in live cell imaging was then tested. PAR-T sensors were expressed in Hela cells in a doxycycline-dependent manner and live cell imaging performed after subjecting the cells to H2O2-mediated PARP-1 activation (FIG. 7A). This PAR-T construct also expresses mCherry with nuclear localization signal (NLS) to illuminate the nuclei and act as a control for variability in expression of the constructs (FIG. 7A). […] Using the WWE-based ddGFP PAR-T construct, accumulation of PAR after H2O2-treatment was detected in real time.
Next, a set of assays was performed to compare the performance of the PAR-T sensors to conventional PAR detection reagents (WWE-Fc and PAR antibody) in a variety of assays. […]

[2] = biological target: PARylated PARP-1 (Homo sapiens, UniProt P09874); experiment: In vitro ADP-ribosylation assay with ARBD-ddGFP pairs, recombinant PARP-1; assay type: biochemical; conditions: ARBD fused to ddGFP-A/B, recombinant proteins
PARylated PARP-1, sequence (P09874 whole entry, the tested form may be a part): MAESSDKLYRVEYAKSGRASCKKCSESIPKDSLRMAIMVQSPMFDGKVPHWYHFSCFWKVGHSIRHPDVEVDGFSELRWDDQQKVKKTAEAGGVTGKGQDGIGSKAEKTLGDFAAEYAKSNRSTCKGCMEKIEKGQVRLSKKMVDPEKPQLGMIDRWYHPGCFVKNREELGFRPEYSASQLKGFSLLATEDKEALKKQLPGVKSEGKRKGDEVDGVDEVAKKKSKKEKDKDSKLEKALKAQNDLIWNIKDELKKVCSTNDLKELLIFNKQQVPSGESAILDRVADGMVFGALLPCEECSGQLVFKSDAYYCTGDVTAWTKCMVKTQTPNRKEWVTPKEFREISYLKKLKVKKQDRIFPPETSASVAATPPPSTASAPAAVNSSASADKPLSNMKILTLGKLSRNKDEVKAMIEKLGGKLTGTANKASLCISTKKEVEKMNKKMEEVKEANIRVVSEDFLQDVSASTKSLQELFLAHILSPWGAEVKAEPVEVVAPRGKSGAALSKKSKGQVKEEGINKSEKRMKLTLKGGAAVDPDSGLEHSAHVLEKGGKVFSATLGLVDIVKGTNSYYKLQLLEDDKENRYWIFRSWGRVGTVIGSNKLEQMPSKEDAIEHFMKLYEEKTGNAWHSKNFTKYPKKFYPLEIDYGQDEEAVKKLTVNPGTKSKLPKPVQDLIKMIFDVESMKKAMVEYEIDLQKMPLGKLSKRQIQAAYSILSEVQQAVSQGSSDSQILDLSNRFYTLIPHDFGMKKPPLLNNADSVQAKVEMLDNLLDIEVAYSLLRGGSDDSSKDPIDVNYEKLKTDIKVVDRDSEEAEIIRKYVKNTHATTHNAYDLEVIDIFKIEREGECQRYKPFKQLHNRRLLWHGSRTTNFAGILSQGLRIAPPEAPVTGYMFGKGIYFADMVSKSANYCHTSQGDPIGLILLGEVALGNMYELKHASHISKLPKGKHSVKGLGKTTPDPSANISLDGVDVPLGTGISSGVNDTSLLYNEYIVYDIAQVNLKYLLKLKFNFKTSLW
Text: Dimerization-dependent GFP is a genetically encoded sensor that was initially developed to study protein interactions. In this system, a pair of a quenched GFP (ddGFPA) and a non-fluorogenic GFP (ddGFPB) form a heterodimer that can result in improved fluorescence. In this example, a ddGFP-based fluorescence sensor (fluorescent PAR-Trackers or PAR-T) was designed to allow for live cell imaging, with high signal-noise ratio. To achieve this, the various ADPR reader domains (ARBDs) were fused to ddGFP-A/B and purified as recombinant proteins (FIG. 1A, FIG. 1B, FIG. 6A). In vitro ADP-ribosylation assays were performed using recombinant PARP-1 (to detect PAR) and PARP-3 (to detect MAR) specifically (FIG. 6B and FIG. 6C). […] These reagents recognized PARylated-PARP-1 but not MARylated PARP-3, or the precursors of ADPR (FIG. 1C). Accordingly, the utility of these reagents was further tested in in vitro PARP-1 PARylation reactions with increasing concentrations of NAD+(FIGS. 6F and 6G) and increasing time of reaction (FIG. 1D and FIG. 1E). Similarly, degradation of PAR chains by ARH3 was detected in a time (FIG. 1F and FIG. 1G) and dose (FIG. 6H) dependent way. Further, in vitro reactions were performed by incubating the recombinant PAR-T sensors and lysates from Hela cells treated with H2O2 to induce DNA damage and activate PARP-1.

recognizing PARylated PARP-1 (fluorescence) ([2]; listed as WWE domain): worked better
recognizing PARylated PARP-1 (fluorescence) ([2]; listed as WWE domain from RNF146): performed well
B1: PAR-T ddGFP: WWE domain from RNF146 fused to dimerization-dependent GFP monomers ddGFP-A and ddGFP-B (protein)
chain 1: MGHHHHHHHHHHSSGHIDDDDKHMLEGNGEYAWYYEGRNGWWQYDERTSRELEDAFSKGKKNTEMLIAGFLYVADLENMVQYRRNEHGRRRKIKRDIIDIPKKGVAGLRLEFSTGHGTGSTGSGSSGTASSESTGSSMASKSEEVIKEFMRFKVRLEGSMNGHEFEIEGEGEGRPYEGTQTAKLKVTKGGPLPFAWDILSPLIMYGSKMYVKHPADVPDYMKLSFPEGFKWERVMHFEDGGLVTATQDSSLQDGTLIYKVKMRGTNFPPDGPVMQKKTLGWDYATERLYPEEGVLKGELLGRLKLKDGGLNLVESKTIYMAKKPVQLPGYYFVDTKLDITSHNEDYTIVEQYERSEGRHHLGH
chain 2: MGHHHHHHHHHHSSGHIDDDDKHMLEGNGEYAWYYEGRNGWWQYDERTSRELEDAFSKGKKNTEMLIAGFLYVADLENMVQYRRNEHGRRRKIKRDIIDIPKKGVAGLRLEFSTGHGTGSTGSGSSGTASSESTGSSTIKEFMRFKVRMEGSMNGHEFEIEGEGEGRPYEGTQTAKLKVTKGGPLPFAWDILSPQIMYGSKAYVRHPADIPDYKKLPFPEGFKWERVMNFEDGGLVTVTQDSSLQDGTLICKVKIRGTNFPPDGPVMQKKTMGWEASTEMLYPKDGVLKGHSYQALKLKDGGHYLVEFETIYMAKKPVQLPGDYCVDTKLDITSHNEDYTIVEQYGRSEGRHRLGMDERYK
detection of PARP-1 activation / PARylation in live cell imaging [1]: detected PARP-1 activation

recognizing PARylated PARP-1 (fluorescence) [2]: performed well
recognizing PARylated PARP-1 (fluorescence) ([2]; listed as macrodomain): worked better
B2: macrodomain from AF1521: macrodomain from AF1521 fused to ddGFP-A/B, recombinant ARBD-ddGFP pair (protein, listed as Archaeoglobus fulgidus)
chain: MERRTLIMEVLFEAKVGDITLKLAQGDITQYPAKAIVNAANKRLEHGGGVAYAIAKACAGDAGLYTEISKKAMREQFGRDYIDHGEVVVTPAMNLEERGIKYVFHTVGPICSGMWSEELKEKLYKAFLGPLEKAEEMGVESIAFPAVSAGIYGCDLEKVVETFLEAVKNFKGSAVKEVALVIYDRKSAEVALKVFERSL

recognizing PARylated PARP-1 (fluorescence) [2]: able to detect PARylation in vitro
B3: WWE-macrodomain combination sensor: ddGFP sensor pair combining WWE domain from RNF146 and macrodomain from AF1521 (protein)
chain 1: MGNGEYAWYYEGRNGWWQYDERTSRELEDAFSKGKKNTEMLIAGFLYVADLENMVQYRRNEHGRRRKIKRDIIDIPKKGVAGLR
chain 2: B2 chain
modifications: left off: small tags and cut ends
notes: ddGFP sensor pair combining WWE domain from RNF146 and macrodomain from AF1521
detection of PARP-1 activation / PARylation in live cell imaging [1]: failed to recognize PARylation in cells

Reference: US20240252689A1, “POLY-ADP RIBOSE (PAR) TRACKER OPTIMIZED SPLIT-PROTEIN REASSEMBLY PAR DETECTION REAGENTS” (THE BOARD OF REGENTS OF THE UNIVERSITY OF TEXAS SYSTEM, priority 2021, published 2024)
